Assay results reported in PMC4355918.

Biological target: hnRNP C1 (UniProt P07910-2 1-293)
Assay: filter binding

Binder: AACUUAAUGUUUUUGCAUUGGUCUUUGAGUUA (structured_RNA) [MALAT1 2,577-U]
- binding signal: ~4 fold stronger than N1
